In paper PMC10786891, “Massively parallel profiling of RNA-targeting CRISPR-Cas13d”:
Substitutions are numbered along the chain they refer to. Names may count otherwise.

T1: EsCas13d, nuclease-dead (Eubacterium siraeum, UniProt B0MS50, R295A;H300A;R849A;H854A)
T1 sequence: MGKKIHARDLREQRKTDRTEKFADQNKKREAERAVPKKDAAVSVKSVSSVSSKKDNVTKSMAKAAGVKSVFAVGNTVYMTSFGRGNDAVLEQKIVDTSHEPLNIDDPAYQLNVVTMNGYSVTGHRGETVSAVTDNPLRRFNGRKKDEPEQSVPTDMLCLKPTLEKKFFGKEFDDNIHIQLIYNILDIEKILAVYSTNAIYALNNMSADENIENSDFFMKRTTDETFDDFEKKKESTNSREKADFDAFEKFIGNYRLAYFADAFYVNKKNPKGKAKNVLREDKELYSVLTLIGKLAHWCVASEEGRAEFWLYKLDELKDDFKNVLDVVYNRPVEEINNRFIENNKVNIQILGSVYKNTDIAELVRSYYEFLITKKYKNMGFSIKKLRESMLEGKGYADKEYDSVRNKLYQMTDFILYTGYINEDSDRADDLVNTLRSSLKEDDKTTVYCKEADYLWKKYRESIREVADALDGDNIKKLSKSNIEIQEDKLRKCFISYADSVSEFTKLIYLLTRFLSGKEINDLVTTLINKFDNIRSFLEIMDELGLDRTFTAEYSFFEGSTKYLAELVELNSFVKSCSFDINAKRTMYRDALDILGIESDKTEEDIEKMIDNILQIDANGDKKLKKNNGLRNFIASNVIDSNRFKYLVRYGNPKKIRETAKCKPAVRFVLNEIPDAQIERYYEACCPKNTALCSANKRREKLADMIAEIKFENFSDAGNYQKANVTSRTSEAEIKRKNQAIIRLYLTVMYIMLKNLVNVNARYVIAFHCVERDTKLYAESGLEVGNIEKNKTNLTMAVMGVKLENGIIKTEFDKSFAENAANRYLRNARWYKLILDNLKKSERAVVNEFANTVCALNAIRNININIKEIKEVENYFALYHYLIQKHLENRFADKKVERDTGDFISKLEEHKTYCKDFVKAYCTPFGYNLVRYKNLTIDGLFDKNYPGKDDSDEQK

B1: target 1 A14G,U19C (mixed)
RNA 1: CACCCGUGCAAAAAUGCAGGGGUCUAAAACUGAGCGGAUAACCUCUCUAUGG
RNA 2: GGGAAUGGAUCCACAUCUACGAAUUCGUACCACAGAGGGGUUAUCCGCUCACCGAGAUCGGAAGAGCACACGU
B2: target 1 del5,del11 (mixed)
RNA 1: B1 RNA 1
RNA 2: GGGAAUGGAUCCACAUCUACGAAUUCGUACCAUAGAGAGGUAUCCCUCACCGAGAUCGGAAGAGCACACGU
B3: target 1 insC 3' of 17,insU 3' of 7 (mixed)
RNA 1: B1 RNA 1
RNA 2: GGGAAUGGAUCCACAUCUACGAAUUCGUACCAUAGCAGAGGUUAUCUCGCUCACCGAGAUCGGAAGAGCACACGU
B4: target 1 G5A,A16C (mixed)
RNA 1: B1 RNA 1
RNA 2: B1 RNA 2 with C33U, A36C, G38A, G47A
B5: target 1 U8A,U11C (mixed)
RNA 1: B1 RNA 1
RNA 2: B1 RNA 2 with C33U, G38A, U41C, U44A
B6: target 1 U3G,C7G (mixed)
RNA 1: B1 RNA 1
RNA 2: B1 RNA 2 with C33U, G38A, C45G, U49G
B7: target 1 insU 3' of 14,insG 3' of 2 (mixed)
RNA 1: B1 RNA 1
RNA 2: GGGAAUGGAUCCACAUCUACGAAUUCGUACCAUAGAGAUGGUUAUCCGCUCGACCGAGAUCGGAAGAGCACACGU
B8: target 1 C6A,G12U (mixed)
RNA 1: B1 RNA 1
RNA 2: B1 RNA 2 with C33U, G38A, G40U, C46A
B9: target 1 insU 3' of 20,insG 3' of 8 (mixed)
RNA 1: B1 RNA 1
RNA 2: B3 RNA 2 with A34U, G35A, C36G, C46G, U47C
B10: target 1 insG 3' of 14,insC 3' of 9 (mixed)
RNA 1: B1 RNA 1
RNA 2: B3 RNA 2 with C36A, A37G, G38A, A39G, U45C, C46U, U47C
B11: target 1 insC 3' of 20,insU 3' of 20 (mixed)
RNA 1: B1 RNA 1
RNA 2: GGGAAUGGAUCCACAUCUACGAAUUCGUACCACUUAGAGAGGUUAUCCGCUCACCGAGAUCGGAAGAGCACACGU
B12: target 1 C4G,G5C (mixed)
RNA 1: B1 RNA 1
RNA 2: B1 RNA 2 with C33U, G38A, G47C, C48G
B13: target 1 insU 3' of 21,insU 3' of 18 (mixed)
RNA 1: B1 RNA 1
RNA 2: B11 RNA 2 with A32U, C33A, U35A, A36U
B14: target 1 insC 3' of 20,insA 3' of 6 (mixed)
RNA 1: B1 RNA 1
RNA 2: B3 RNA 2 with U33C, A34U, G35A, C36G, U47C, C48A
B15: target 1 insG 3' of 19,insU 3' of 2 (mixed)
RNA 1: B1 RNA 1
RNA 2: B7 RNA 2 with A34G, G35A, A36G, G37A, A38G, U39A, G52U
B16: target 1 insC 3' of 20,insG 3' of 16 (mixed)
RNA 1: B1 RNA 1
RNA 2: B11 RNA 2 with U35A, A36G, G37A, A38G
B17: target 1 U11C,G13A (mixed)
RNA 1: B1 RNA 1
RNA 2: B1 RNA 2 with C33U, G38A, G39A, U41C
B18: target 1 insC 3' of 15,insU 3' of 12 (mixed)
RNA 1: B1 RNA 1
RNA 2: B11 RNA 2 with C33U, U34A, U35G, A38C, G39A, A40G, G42U
B19: target 1 insG 3' of 10,insA 3' of 4 (mixed)
RNA 1: B1 RNA 1
RNA 2: B7 RNA 2 with U39G, G41U, U43G, U50A, C51U, G52C
B20: target 1 insU 3' of 22,insU 3' of 7 (mixed)
RNA 1: B1 RNA 1
RNA 2: B3 RNA 2 with C31U, A32C, U33A, A34U, G35A, C36G
B21: target 1 insA 3' of 21,insA 3' of 2 (mixed)
RNA 1: B1 RNA 1
RNA 2: B7 RNA 2 with U33A, A34U, G35A, A36G, G37A, A38G, U39A, G52A
B22: target 1 A9C,G12U (mixed)
RNA 1: B1 RNA 1
RNA 2: B1 RNA 2 with C33U, G38A, G40U, A43C
B23: target 1 C2A,U11G (mixed)
RNA 1: B1 RNA 1
RNA 2: B1 RNA 2 with C33U, G38A, U41G, C50A
B24: target 1 insG 3' of 21 (mixed)
RNA 1: B1 RNA 1
RNA 2: GGGAAUGGAUCCACAUCUACGAAUUCGUACCGAUAGAGAGGUUAUCCGCUCACCGAGAUCGGAAGAGCACACGU
B25: target 1 C7G,A16C (mixed)
RNA 1: B1 RNA 1
RNA 2: B1 RNA 2 with C33U, A36C, G38A, C45G
B26: target 1 insG 3' of 21,insC 3' of 9 (mixed)
RNA 1: B1 RNA 1
RNA 2: B3 RNA 2 with A32G, U33A, A34U, G35A, C36G, U45C, C46U, U47C
B27: target 1 insG 3' of 14,insU 3' of 4 (mixed)
RNA 1: B1 RNA 1
RNA 2: B7 RNA 2 with U39G, C51U, G52C
B28: target 1 insG 3' of 22,insG 3' of 2 (mixed)
RNA 1: B1 RNA 1
RNA 2: B7 RNA 2 with C31G, A32C, U33A, A34U, G35A, A36G, G37A, A38G, U39A
B29: target 1 insU 3' of 20,insU 3' of 14 (mixed)
RNA 1: B1 RNA 1
RNA 2: B11 RNA 2 with C33U, U35A, A36G, G37A, A38G, G39A, A40U
B30: target 1 insC 3' of 15,insA 3' of 11 (mixed)
RNA 1: B1 RNA 1
RNA 2: B11 RNA 2 with C33U, U34A, U35G, A38C, G39A, A40G, G42U, U43A
B31: target 1 insC 3' of 14,insG 3' of 2 (mixed)
RNA 1: B1 RNA 1
RNA 2: B7 RNA 2 with U39C
B32: target 1 insG 3' of 10,insU 3' of 2 (mixed)
RNA 1: B1 RNA 1
RNA 2: B7 RNA 2 with U39G, G41U, U43G, G52U
B33: target 1 insA 3' of 21,insC 3' of 1 (mixed)
RNA 1: B1 RNA 1
RNA 2: B7 RNA 2 with U33A, A34U, G35A, A36G, G37A, A38G, U39A, G52A, A53C

These binders were tested against T1, EsCas13d, nuclease-dead (assay: crRNA (strand 1, pre-loaded); Mg2+; 40 mM Tris-HCl pH 7.5, 150 mM NaCl, 6 mM MgCl2, 1 mM DTT, 0.1% Tween-20, 0.2 mg/ml BSA; 25 C; 10 min per concentration, then washed). Conditions: tags: His6-TwinStrep-SUMO cleaved; N-terminal SNAP kept (SNAP-Surface 488); label: 3' end held by stalled T7 RNA polymerase.

| Binder | Kd [nM] |
| --- | --- |
| B1 | 63 ± 14 |
| B2 | 30 ± 1.5 |
| B3 | 57 ± 6 |
| B4 | 57 ± 12 |
| B5 | 12.6 ± 0.9 |
| B6 | 6.04 ± 0.33 |
| B7 | 44 ± 7 |
| B8 | 10.7 ± 0.5 |
| B9 | 20.4 ± 1.6 |
| B10 | 12.7 ± 0.6 |
| B11 | 18.3 ± 0.9 |
| B12 | 15.7 ± 1 |
| B13 | 52 ± 5 |
| B14 | 11.1 ± 0.6 |
| B15 | 57 ± 13 |
| B16 | 11.8 ± 0.9 |
| B17 | 8.7 ± 1.3 |

| Binder | Kd [nM] |
| --- | --- |
| B18 | 14.6 ± 0.9 |
| B19 | 35 ± 5 |
| B20 | 43 ± 4 |
| B21 | 17.7 ± 1 |
| B22 | 19.3 ± 1.2 |
| B23 | 16.6 ± 1 |
| B24 | 67 ± 10 |
| B25 | 63 ± 6 |
| B26 | 83 ± 16 |
| B27 | 11.7 ± 1.1 |
| B28 | 38 ± 5 |
| B29 | 53 ± 21 |
| B30 | 79 ± 18 |
| B31 | 62 ± 23 |
| B32 | 24.7 ± 1.7 |
| B33 | 13.7 ± 0.7 |
